We go through eight molecules from patent US20240352105A1, “COMPOSITIONS AND METHODS FOR NEUTRALIZING ANTIGENS” (PACAGEN, INC, priority 2023, published 2024).

Several values for one entry are separate records, joined by “and”; a condition that tells them apart may be missing. Equal values may be shown once. No end group written: not given here.

First the molecules themselves.
T1: recombinant His-tagged Der p1 (dust mite, UniProt P08176 99-320, limits assumed)
T1 construct: Recombinant His-tagged protein made by the applicant; also called Der p1-His; Der pl; not shown: His tag
T1 sequence (looked up): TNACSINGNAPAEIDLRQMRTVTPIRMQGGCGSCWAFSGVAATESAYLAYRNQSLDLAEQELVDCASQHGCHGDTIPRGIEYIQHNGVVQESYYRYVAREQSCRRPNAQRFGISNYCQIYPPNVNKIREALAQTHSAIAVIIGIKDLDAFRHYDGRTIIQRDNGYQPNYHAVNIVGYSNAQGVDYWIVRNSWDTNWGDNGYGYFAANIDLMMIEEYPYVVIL

T2: recombinant Fel d1-His (Felis catus, UniProt P30438+P30440)
T2 construct: His; made in house
T2 sequence (P30438 23-92): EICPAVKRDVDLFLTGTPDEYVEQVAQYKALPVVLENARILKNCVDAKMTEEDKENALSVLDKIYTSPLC
T2 sequence (P30440 18-109): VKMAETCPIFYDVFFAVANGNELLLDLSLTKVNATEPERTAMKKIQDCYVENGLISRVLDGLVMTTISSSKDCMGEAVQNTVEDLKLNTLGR

B1: SDAB22110-2-G1 (peptide)
peptide: VVAFGIS
modifications: also: biotinylated, site not given here
notes: 7-amino acid peptide from a phage display library
B2: SDAB22110-2-B2 (peptide)
peptide: GIHMALM
modifications: also: biotinylated, site not given here
notes: as for B1
B3: SDAB22110-2-D9 (peptide)
peptide: LTGYGMS
modifications: also: biotinylated, site not given here
notes: as for B1
B4: SDAB22110-2-F1 (peptide)
peptide: AVVSFYP
modifications: also: biotinylated, site not given here
notes: as for B1
B5: SDAB22110-2-C3 (peptide)
peptide: YPTWAYR
modifications: also: biotinylated, site not given here
notes: as for B1
B6: SDAB22110-2-D3 (peptide)
peptide: HSGPECG
modifications: also: biotinylated, site not given here
notes: as for B1
B7: 370VH + 378VL: known Fel D1 positive control antibody, heavy chain SEQ ID NO: 64, light chain SEQ ID NO: 65 (antibody, V domains shown)
VH: EVQLVESGGGLAQPGGSLRLSCAASGFTFNNYAMTWVRQAPGKGLDWVSAISDSGRSTFSADSVKGRFTISRDNSKNTLYLQMDSLRAEDTALYYCAKHRNWNYPVFDYWGQGTLVTVSS
VL: DIQLTQSPSFLSASVGDRVTITCWASQGISSYLAWYQQKPGKAPKLLIYSASTLQSGVPSRFSGSGSGTEFTLTISSLQPEDFATYYCQQLNSYPFTFGPGTKVDIK
B8: Der p1-His: recombinant His-tagged dust mite allergen Der p1 (protein)
chain: T1 sequence (looked up)
modifications: left off: small tags and cut ends

In one assay the target is T1, recombinant His-tagged Der p1. The experiment in a line: ELISA, Der p1 on plate, biotinylated peptide at 3.333, duplicate 1.
Conditions: not given
As for the experimental part: (§1) An ELISA was used to validate identified peptides. Der p1 was bound to the bottom of a plate. Different concentrations of the chosen (biotinylated) peptides were added and then washed. Then, HRP-streptavidin (which binds to the biotin) was added and an OD at 450 nm is measured. Duplicate measurements are separated by commas.
In general terms: ELISA stands for enzyme-linked immunosorbent assay.
Turning to B1, the OD450 was found to be 0.147 OD450.
As to B2, the OD450 is 0.132 OD450.
Still for that read-out and setting: next, B3: 0.154 OD450; B4: 0.221 OD450; B5: 0.162 OD450.
The same measure, in the same setting: next, B6: 2.77 OD450.

The target is the same in a further assay. The experiment in a line: ELISA, Der p1 on plate, biotinylated peptide at 0.041, duplicate 1.
Conditions: not given
As for the experimental part:
as §1
Consider B1, for which the OD450 came out at 0.057 OD450.
On the same count and under the same terms, next, B2: 0.07 OD450; B3: 0.061 OD450; B4: 0.079 OD450.
Still for that read-out and setting: to B5 belongs 0.058 OD450; to B6, 0.468 OD450.

For another assay the target is unchanged. Description: ELISA, Der p1 on plate, biotinylated peptide at 30, duplicate 1.
Conditions: not given
On the procedure: as §1
Consider B1, for which the OD450 was 0.666 OD450.
In the case of B2, the OD450 amounted to 0.536 OD450.
Same read-out and setting: next, B3: 0.751 OD450.
Still for that read-out and setting: to B4 belongs 0.938 OD450; to B5, 0.684 OD450; to B6, 4.1 OD450.

For a further assay the target is unchanged. Description: ELISA, Der p1 on plate, biotinylated peptide at 0.041, duplicate 2.
Conditions: not given
As for the experimental part:
as §1
With B1, the OD450 came out at 0.062 OD450.
Still for that read-out and setting: next, B2: 0.061 OD450; B3: 0.059 OD450; B4: 0.066 OD450.
Still for that read-out and setting: next, B5: 0.057 OD450.
The same measure, in the same setting: next, B6: 0.463 OD450.

A further assay shares this target. The experiment in a line: ELISA, Der p1 on plate, biotinylated peptide at 3.333, duplicate 2.
Conditions: not given
On the procedure: as §1
Turning to B1, the OD450 is 0.145 OD450.
Still for that read-out and setting: next, B2: 0.136 OD450; B3: 0.154 OD450; B4: 0.209 OD450.
On the same count and under the same terms, next, B5: 0.191 OD450.
The same measure, in the same setting: to B6 belongs 2.88 OD450.

The next assay shares this target. The experiment in a line: ELISA, Der p1 on plate, biotinylated peptide at 1.111, duplicate 2.
Conditions: not given
On the procedure:
as §1
B1: the OD450 stood at 0.109 OD450.
Still for that read-out and setting: to B2 belongs 0.089 OD450.
Still for that read-out and setting: next, B3: 0.102 OD450; B4: 0.125 OD450.
Same read-out and setting: to B5 belongs 0.102 OD450; to B6, 2.25 OD450.

For a further assay the target is unchanged. Description: ELISA, Der p1 on plate, biotinylated peptide at 0.123, duplicate 1.
Conditions: not given
As for the experimental part:
as §1
On to B1, for which the OD450 was 0.082 OD450.
On the same count and under the same terms, next, B2: 0.078 OD450; B3: 0.067 OD450; B4: 0.073 OD450.
Consider B5, for which the OD450 was 0.065 OD450.
The same measure, in the same setting: next, B6: 0.866 OD450.

A further assay has as its target T2, recombinant Fel d1-His. Description: Recombinant Fel D1 His binding assay with positive control antibodies. Further details: species or system cat. The following applies: Volume of Fel D1-His 10 μL (concentration ~1 μg/μL). On the procedure:
In order to obtain single variable domain on heavy chain, i.e., VHH, specific for cat allergen Fel D1, a recombinant His-tagged Fel D1 was prepared, which reached high purity, as shown via SDS-Page Western blotting in FIG. 14. To confirm this, an ELISA was performed measuring optical density when the recombinant Fel d1-His is incubated with two known Fel D1 antibodies which are summarized in Table 18. As summarized in Table 19, the recombinant Fel d1-His was effectively bound by both antibodies.
On to B7, for which the “OD450 Using Positive Control” value was 4.47 and 4.44.

The same assay, now with this note: Volume of Fel D1-His 50 μL (concentration ~1 μg/μL).
On to B7, for which the “OD450 Using Positive Control” value was 4.55 and 4.53.

Still in this assay, the particulars now being: Volume of Fel D1-His 100 μL (concentration ~1 μg/μL).
Take B7: the “OD450 Using Positive Control” value is listed as 4.60.

A further assay concerns the target T1, recombinant His-tagged Der p1. Description: ELISA, Der p1 on plate, biotinylated peptide at 0.370, duplicate 1.
Conditions: not given
On the procedure:
as §1
Regarding B1, the OD450 was 0.088 OD450.
Still for that read-out and setting: to B2 belongs 0.083 OD450; to B3, 0.068 OD450; to B4, 0.076 OD450.
Still for that read-out and setting: to B5 belongs 0.072 OD450; to B6, 1.37 OD450.

The target is the same in the next assay. Description: ELISA, Der p1 on plate, biotinylated peptide at 1.111, duplicate 1.
Conditions: not given
On the procedure: as §1
Turning to B1, the OD450 was determined as 0.102 OD450.
The same measure, in the same setting: next, B2: 0.089 OD450; B3: 0.095 OD450.
On the same count and under the same terms, to B4 belongs 0.131 OD450; to B5, 0.104 OD450; to B6, 2.16 OD450.

A further assay has the same target. The experiment in a line: ELISA, Der p1 on plate, biotinylated peptide at 10, duplicate 1.
Conditions: not given
As for the experimental part: as §1
Turning to B1, the OD450 was 0.323 OD450.
Take B2: the OD450 was 0.275 OD450.
Still for that read-out and setting: to B3 belongs 0.374 OD450; to B4, 0.479 OD450; to B5, 0.346 OD450.
On the same count and under the same terms, to B6 belongs 3.55 OD450.

The target is the same in the next assay. The experiment in a line: ELISA, Der p1 on plate, biotinylated peptide at 0.370, duplicate 2.
Conditions: not given
On the procedure: as §1
Consider B1, for which the OD450 was found to be 0.082 OD450.
The same measure, in the same setting: to B2 belongs 0.071 OD450; to B3, 0.078 OD450; to B4, 0.073 OD450.
The same measure, in the same setting: to B5 belongs 0.066 OD450; to B6, 1.36 OD450.

For another assay the target is unchanged. Description: ELISA, Der p1 on plate, biotinylated peptide at 30, duplicate 2.
Conditions: not given
As for the experimental part: as §1
Consider B1, for which the OD450 is 0.629 OD450.
Still for that read-out and setting: next, B2: 0.537 OD450.
Still for that read-out and setting: next, B3: 0.771 OD450; B4: 0.805 OD450.
The same measure, in the same setting: to B5 belongs 0.748 OD450; to B6, 4.13 OD450.

Another assay shares this target. The experiment in a line: ELISA, Der p1 on plate, biotinylated peptide at 10, duplicate 2.
Conditions: not given
On the procedure:
as §1
Regarding B1, the OD450 was determined as 0.293 OD450.
As for B2, the OD450 stood at 0.289 OD450.
With B3, the OD450 was found to be 0.357 OD450.
The same measure, in the same setting: to B4 belongs 0.516 OD450; to B5, 0.376 OD450.
The same measure, in the same setting: next, B6: 3.57 OD450.

For a further assay, the system named is known Der p1 antibody (clone 10B9). The experiment in a line: Recombinant Der p1-His ELISA binding assay. The following applies: Der p1-His Concentration 0.00064 μg/mL. On the procedure: In order to obtain single variable domain on heavy chain, i.e., VHH, specific for dust mite allergen Der p1, a recombinant His-tagged Der p1 was prepared, which reached high purity, as shown via SDS-Page Western blotting in FIG. 8. To confirm this, an ELISA was performed measuring optical density when the recombinant Der p1-His is incubated with a known Der p1 antibody (clone 10B9). As summarized in Table 11, the recombinant Der p1-His was effectively bound by the antibody.
For B8, the “OD at 450 nm” value is 0.13 and 0.12.

Staying with this assay, now noted: Der p1-His Concentration 0.016 μg/mL.
Regarding B8, the “OD at 450 nm” value was 0.20 and 0.17.

Still in this assay, the particulars now being: Der p1-His Concentration 0.08 μg/mL.
Turning to B8, the “OD at 450 nm” value was 0.58 and 0.49.

The same assay, now with this note: Der p1-His Concentration 0.4 μg/mL.
Regarding B8, the “OD at 450 nm” value is 1.80 and 1.87.

The assay is the same for the next values; noted with them: Der p1-His Concentration 2 μg/mL.
On to B8, for which the “OD at 450 nm” value was 4.03 and 4.31.

The same assay, now with this note: Der p1-His Concentration 10 μg/mL.
Regarding B8, the “OD at 450 nm” value was 4.37 and 4.40.

The target of the next assay is T1, recombinant His-tagged Der p1. Description: ELISA, Der p1 on plate, biotinylated peptide at 0.123, duplicate 2.
Conditions: not given
On the procedure: as §1
Regarding B1, the OD450 stood at 0.073 OD450.
In the case of B2, the OD450 came to 0.066 OD450.
The same measure, in the same setting: to B3 belongs 0.068 OD450.
Same read-out and setting: next, B4: 0.075 OD450.
For B5, the OD450 stood at 0.065 OD450.
Same read-out and setting: to B6 belongs 0.906 OD450.
